Reference: patent CN111704670A (MABWELL SHANGHAI BIOSCIENCE CO LTD; JIANGSU MABWELL NEW …, dated 2020)
Values belong to the binder of their own block, whether it stands above or below them.

Molecular target: T1, RANKL-兔Fc (rabbit, UniProt O14788 140-317 (human entry), limits assumed)
T1 sequence (looked up): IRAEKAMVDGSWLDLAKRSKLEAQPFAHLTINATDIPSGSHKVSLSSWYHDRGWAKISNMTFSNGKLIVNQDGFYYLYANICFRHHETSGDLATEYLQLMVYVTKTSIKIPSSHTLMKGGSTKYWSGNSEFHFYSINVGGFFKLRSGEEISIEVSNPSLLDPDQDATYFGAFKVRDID
Test: cell-based or functional assay

- 异构体生物活性 IC50: 3 ng/mL
B1: 重组人源抗RANKL抗体IgG2型二硫键异构体IgG2-B型 (antibody, V domains shown)
VH: EVQLLESGGGLVQPGGSLRLSCAASGFTFSSYAMSWVRQAPGKGLEWVSGITGSGGSTYYADSVKGRFTISRDNSKNTLYLQMNSLRAEDTAVYYCAKDPGTTVIMSWFDPWGQGTLVTVSS
VL: EIVLTQSPGTLSLSPGERATLSCRASQSVRGRYLAWYQQKPGQAPRLLIYGASSRATGIPDRFSGSGTDFTLTISRLEPEDFAVFYCQQYGSSPRTFGQGTKVEIKR

- 生物学活性量效曲线 IC50 (RAW264.7 TRAP/pNPP assay); 原液 lot 20131201: 1.07 ng/ml
- 生物学活性量效曲线 IC50 (RAW264.7 TRAP/pNPP assay); 原液 lot 20140201: 1.63 ng/ml
- 生物学活性量效曲线 IC50 (RAW264.7 TRAP/pNPP assay); 工作参考品 lot 20140301, plate with Denosumab: 1.11 ng/ml
- 生物学活性量效曲线 IC50 (RAW264.7 TRAP/pNPP assay); 工作参考品 lot 20140301, plate with lot 20131201: 1.33 ng/ml
- 生物学活性量效曲线 IC50 (RAW264.7 TRAP/pNPP assay); 工作参考品 lot 20140301, plate with lot 20140201: 1.34 ng/ml
B2: 重组人源抗RANKL单克隆抗体IgG2型 (TK006) (antibody, V domains shown)
VH: B1 VH
VL: B1 VL

- 异构体生物活性 IC50: 2.89 ng/mL
B3: 重组人源抗RANKL抗体IgG2型二硫键异构体IgG2-A型 (antibody, V domains shown)
VH: B1 VH
VL: B1 VL
